Target: human IL-2 (Miltenyi) (human) (UniProt P60568)
Assay: SPR

Chain of human IL-2 (Miltenyi) (human) (P60568 21-153 limits assumed): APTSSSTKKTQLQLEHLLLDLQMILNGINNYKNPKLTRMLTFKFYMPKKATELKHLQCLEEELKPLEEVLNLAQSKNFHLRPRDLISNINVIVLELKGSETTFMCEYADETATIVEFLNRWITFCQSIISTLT

Kd [µM]	kon [M⁻¹ s⁻¹]	koff [s⁻¹]	Binder
0.012	1.1e+07		GS_hCD25.b (protein, part only; not given: Fusion partner and linker, part only) chain, part: ELCDDDPPEIPHATFKAMAYKEGTMLNCECKRGFRRIKSGSLYMLCTGNSSHSSWDNQCQCTSSATRNTTKQVTPQPEEQKERKTTEMQSPMQPVDQASLPGHCREPPPWENEATERIYHFVVGQMVYYQCVQGYRALHRGPAESVCKMTHGKTRWTQPQLICTGEMETSQFPGEEKPQASPEGRPESETSCLVTTTDFQIQ
0.012	5.4e+06	0.063	GS_hCD25.d (protein, part only; not given: Fusion partner and linker, part only) chain, part: ELCDDDPPEIPHATFKAMAYKEGTMLNCECKRGFRRIKSGSLYMLCTGNSSHSSWDNQCQCTSSATRNTTKQVTPQPEEQKERKTTEMQSPMQPVDQASLPGHCREPPPWENEATERIYHFVVGQMVYYQCVQGYRALHRGPAESVCKMTHGKTRWTQPQLICTG
